Results as given in PMC2731897.

T1: GroEL1 (untagged) (Mycobacterium tuberculosis) (UniProt P9WPE9)
T1 sequence: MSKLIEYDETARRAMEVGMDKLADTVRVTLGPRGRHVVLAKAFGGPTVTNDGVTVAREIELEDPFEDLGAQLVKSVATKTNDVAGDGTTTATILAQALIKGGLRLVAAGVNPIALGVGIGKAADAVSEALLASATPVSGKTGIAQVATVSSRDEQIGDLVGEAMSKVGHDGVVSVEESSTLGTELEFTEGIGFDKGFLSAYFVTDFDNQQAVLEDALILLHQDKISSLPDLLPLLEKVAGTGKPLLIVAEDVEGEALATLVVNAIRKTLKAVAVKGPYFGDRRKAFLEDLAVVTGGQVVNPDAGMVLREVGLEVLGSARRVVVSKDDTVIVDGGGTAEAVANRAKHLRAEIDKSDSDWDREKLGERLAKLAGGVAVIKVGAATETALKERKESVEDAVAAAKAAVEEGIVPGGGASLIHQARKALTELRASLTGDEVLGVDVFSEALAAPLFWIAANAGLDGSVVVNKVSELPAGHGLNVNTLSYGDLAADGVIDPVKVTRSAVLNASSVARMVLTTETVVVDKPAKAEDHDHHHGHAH

T2: GroEL1 (untagged) (Mycobacterium tuberculosis, UniProt P9WPE9 1-539)
T2 sequence: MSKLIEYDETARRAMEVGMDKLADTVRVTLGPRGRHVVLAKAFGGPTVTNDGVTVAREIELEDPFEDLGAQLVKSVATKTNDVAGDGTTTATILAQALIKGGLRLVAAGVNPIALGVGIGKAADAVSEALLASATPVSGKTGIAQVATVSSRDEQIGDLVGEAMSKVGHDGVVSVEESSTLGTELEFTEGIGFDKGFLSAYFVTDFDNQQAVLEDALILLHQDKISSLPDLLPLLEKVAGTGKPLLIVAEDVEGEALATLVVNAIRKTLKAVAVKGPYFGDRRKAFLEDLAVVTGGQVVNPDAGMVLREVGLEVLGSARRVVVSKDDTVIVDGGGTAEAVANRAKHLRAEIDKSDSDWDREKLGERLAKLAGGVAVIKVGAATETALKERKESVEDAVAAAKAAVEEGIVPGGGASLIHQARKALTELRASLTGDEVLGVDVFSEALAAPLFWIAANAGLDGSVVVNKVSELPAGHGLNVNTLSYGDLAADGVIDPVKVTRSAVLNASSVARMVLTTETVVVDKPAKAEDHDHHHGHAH

B1: MutO3 ss (ssDNA)
DNA: TTAGCCGATTGCCATTCCTGTACAAATACATGAGAGTGCTAGCACTCAAGGGCGCCCCCT
B2: MutO7 ss (ssDNA)
DNA: TTAGCCGATTGCCATCACGCACTACGTAGTGTCTATGTATCGATCTCAAGGGCGCCCCCT
B3: MutO2 ss (ssDNA)
DNA: ATACTTAGCCGATTGCCATCTAGCACTCTAGAGTGCTAGCACTCAAGGGCGCCCCCTATG
B4: MutO6 ss (ssDNA)
DNA: TTAGCCGATTGCCATCTAGCACTCTATACATGTTGGAACGGACACTCAAGGGCGCCCCCT
B5: CIRCE2FR (dsDNA)
DNA 1: TTAGCCGATTGCCATCTAGCACTCTATACATGAGAGTGCTAGCACTCAAGGGCGCCCCCT
DNA 2: AGGGGGCGCCCTTGAGTGCTAGCACTCTCATGTATAGAGTGCTAGATGGCAATCGGCTAA
B6: CIRCE2F ss (ssDNA)
DNA: TTAGCCGATTGCCATCTAGCACTCTATACATGAGAGTGCTAGCACTCAAGGGCGCCCCCT
B7: MutO4 ss (ssDNA)
DNA: GTGCACTTAGCCGATTGCCATTCTATACATGAGACACTCAAGGGCGCCCCCTCTAGCTAG
B8: MutO5 ss (ssDNA)
DNA: TTAGCCGATTGCCATCTAGCACTCTGCGCCCCCTATACATGAGAGTGCTAGCACTCAAGG

What was measured:
Assay in all cases: EMSA
[1] = molecular target: T1, GroEL1 (untagged) (Mycobacterium tuberculosis)
[2] = molecular target: T2, GroEL1 (untagged)
[3] = molecular target: T2, GroEL1 (untagged); remark: listed apart in the source

| Molecule | binding result [2] | also measured |
| --- | --- | --- |
| TATATAGTCGACCCAGGTGATTCGGCATTCGTCCGCGCCCTCGCGCCGTCGTCGCGGGTGCCGACGCAGGGGTTAGCCGATTGCCATCTAGCACTCTATACATGAGAGTGCTAGCACTCAAGGGCGCCCCCTTGCTTCCTGGTTGCCAGCGTGTCTCTAGATATATA (double strand) [groES upstream region, 140 bp] |  | binding [1]: binds |
| B1 | binds |  |
| B2 | binds |  |
| B3 | binds |  |
| B4 | binds |  |
| B5 |  | Kd [3]: 143 nM |
| B6 | binds |  |
| B7 | binds |  |
| B8 | binds |  |
